Results on 62 sequences are retold here after the supplement of paper PMC7877785.

A short description of this data set: self-splicing fitness, log relative to wild type (ln ratio); higher = more splicing; Tetrahymena group I intron in knt gene, E. coli kanamycin selection, DiMSum; sequences stand for … in CUCUCU…GGAGGGAAAAGUUAUCAGGCAUGCACCUGGUAGCUAGUCUUUAAACCAAUAGAUUGCAUCGGUUUAAAAGGCAAGACCGUCAAAUUGCGGGAAAGGGGUCAACAGCCGUUCAGUACCAAGUCUCAGGGGAAACUUUGAGAUGGCCUUGCAAAGGGUAUGGUAAUAAGCUGACGGACAUGGUCCUAACCACGCAGCCAAGUCCUAAGUCAACAGAUCUUCUGUUGAUAUGGAUGCAGUUCACAGACUAAAUGUCGGUCGGGGAAGAUGUAUUCUUCUCAUAAGAUAUAGUCGGACCUCUCCUUAAUGGGAGCUAGCGGAUGAAGUGAUGCAACACUGGAGCCGCUGGGAACUAAUUUGUAUGCGAAAGUAUAUUGAUUAGUUUUGGAGUACUCGUGGUCG
An outline of the steps: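 DiMSum derived fitness as the error-weighted combination of fold changes across replicates, kanamycin versus no kanamycin, normalised to wild type. E. coli BL21(DE3) held the library, which randomised all eight P1ex-region intron nucleotides within the knt kanamycin-resistance gene on pET-22b(+). Six replicate transformations grew overnight at 37°C or 30°C on LB agar with or without 25 μg/mL kanamycin, also containing 100 μg/mL carbenicillin, 50 μM IPTG and 0.2% rhamnose, and pooled colonies were amplicon-sequenced on an Illumina HiSeq 2500.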

± gives the uncertainty stated by the source.

On to ACUCAGCAAUAUUACGCCAG, for which the “self-splicing fitness (ln)” value runs as follows: (30 °C) -0.898 ± 0.087; (37 °C) -1.27 ± 0.15.

As to AGAAAGCAAUAUUACGGGGG, the “self-splicing fitness (ln)” value by setting is: (30 °C) -3.3 ± 0.15; (37 °C) -2.71 ± 0.17.

Consider UGGCAGCAAUAUUACGGAAG, for which the “self-splicing fitness (ln)” value was -1.78 ± 0.13 (30 °C) and -0.447 ± 0.12 (37 °C).

On to AAUCAGCAAUAUUACGGUCU, for which the “self-splicing fitness (ln)” value was -0.356 ± 0.06 (30 °C) and -0.224 ± 0.071 (37 °C).

Take UAGAAGCAAUAUUACGACCA: the “self-splicing fitness (ln)” value by setting is: (30 °C) -0.67 ± 0.094; (37 °C) -0.157 ± 0.12.

ACGGAGCAAUAUUACGGUGA: the “self-splicing fitness (ln)” value is -3.69 ± 0.23 (30 °C) and -1.55 ± 0.21 (37 °C).

For UCCAAGCAAUAUUACGCCCU, the “self-splicing fitness (ln)” value is, setting by setting: (30 °C) -2.49 ± 0.24; (37 °C) -1.32 ± 0.26.

In the case of UGAGAGCAAUAUUACGGUCG, the “self-splicing fitness (ln)” value is, setting by setting: (30 °C) -1.56 ± 0.083; (37 °C) -0.464 ± 0.11.

As for UUAUAGCAAUAUUACGCGCC, the “self-splicing fitness (ln)” value is -1.96 ± 0.23 (30 °C) and -2.14 ± 0.3 (37 °C).

As to UAGUAGCAAUAUUACGUGGU, the “self-splicing fitness (ln)” value reads like this: (30 °C) -3.62 ± 0.18; (37 °C) -3.33 ± 0.19.

Regarding UGAAAGCAAUAUUACGCUCU, the “self-splicing fitness (ln)” value is -2.48 ± 0.17 (30 °C) and -1.37 ± 0.18 (37 °C).

Consider CCUUAGCAAUAUUACGUCAG, for which the “self-splicing fitness (ln)” value is -3.79 ± 0.35 (30 °C) and -2.74 ± 0.31 (37 °C).

As to AGCAAGCAAUAUUACGAGGA, the “self-splicing fitness (ln)” value by setting is: (30 °C) -2.86 ± 0.17; (37 °C) -2.29 ± 0.2.

With GGAGAGCAAUAUUACGGCGA, the “self-splicing fitness (ln)” value is, setting by setting: (30 °C) -2.22 ± 0.27; (37 °C) -1.69 ± 0.28.

Consider AACGAGCAAUAUUACGCGCA, for which the “self-splicing fitness (ln)” value (30 °C) is -1.28 ± 0.094 and the “self-splicing fitness (ln)” value (37 °C) was -2.1 ± 0.12.

Regarding UUUCAGCAAUAUUACGCUAU, the “self-splicing fitness (ln)” value is -2.73 ± 0.17 (30 °C) and -1.81 ± 0.14 (37 °C).

Turning to GAGUAGCAAUAUUACGACAC, the “self-splicing fitness (ln)” value is, setting by setting: (30 °C) -0.768 ± 0.18; (37 °C) -0.953 ± 0.27.

On to CCUGAGCAAUAUUACGACGC, for which the “self-splicing fitness (ln)” value is -3.08 ± 0.47 (30 °C) and -0.889 ± 0.22 (37 °C).

With AGUAAGCAAUAUUACGUCGG, the “self-splicing fitness (ln)” value is, setting by setting: (30 °C) -3.61 ± 0.35; (37 °C) -1.8 ± 0.29.

Consider AACUAGCAAUAUUACGAGGA, for which the “self-splicing fitness (ln)” value (30 °C) was -1.71 ± 0.1 and the “self-splicing fitness (ln)” value (37 °C) is -1.89 ± 0.11.

Turning to CUCCAGCAAUAUUACGAUCC, the “self-splicing fitness (ln)” value was -4.16 ± 0.47 (30 °C) and -1.49 ± 0.32 (37 °C).

AUGGAGCAAUAUUACGAGUC: for the setting “30 °C”, the “self-splicing fitness (ln)” value was -2.08 ± 0.41.

With GGGCAGCAAUAUUACGUUAC, the “self-splicing fitness (ln)” value is -1.84 ± 0.16 (30 °C) and -0.903 ± 0.23 (37 °C).

On to UACGAGCAAUAUUACGAAAC, for which the “self-splicing fitness (ln)” value (30 °C) was -2.05 ± 0.48.

For GAAAAGCAAUAUUACGUUAA, the “self-splicing fitness (ln)” value is -2.85 ± 0.15 (30 °C) and -1.78 ± 0.13 (37 °C).

As to UCUCAGCAAUAUUACGCGAA, the “self-splicing fitness (ln)” value was -2.12 ± 0.17 (30 °C) and -1.85 ± 0.21 (37 °C).

Turning to GAGGAGCAAUAUUACGGCUG, the “self-splicing fitness (ln)” value runs as follows: (30 °C) -1.48 ± 0.15; (37 °C) -1.88 ± 0.31.

Regarding GACGAGCAAUAUUACGCCAU, the “self-splicing fitness (ln)” value (30 °C) was -2.23 ± 0.49.

Consider ACCCAGCAAUAUUACGUCGC, for which the “self-splicing fitness (ln)” value runs as follows: (30 °C) -1.39 ± 0.069; (37 °C) -0.784 ± 0.076.

Regarding UGGCAGCAAUAUUACGGUAA, the “self-splicing fitness (ln)” value is -0.651 ± 0.089 (30 °C) and 0.0797 ± 0.093 (37 °C).

On to GCAAAGCAAUAUUACGGACA, for which the “self-splicing fitness (ln)” value by setting is: (30 °C) -0.517 ± 0.18; (37 °C) -0.839 ± 0.14.

Turning to CCAGAGCAAUAUUACGUACC, the “self-splicing fitness (ln)” value (37 °C) is -2 ± 0.35.

Turning to CUAGAGCAAUAUUACGGAGU, the “self-splicing fitness (ln)” value is, setting by setting: (30 °C) -4.15 ± 0.33; (37 °C) -2.87 ± 0.43.

AUAGAGCAAUAUUACGUCUG: the “self-splicing fitness (ln)” value (30 °C) is -0.796 ± 0.098 and the “self-splicing fitness (ln)” value (37 °C) was -0.654 ± 0.14.

As to CAUGAGCAAUAUUACGAGGC, the “self-splicing fitness (ln)” value is -2.4 ± 0.2 (30 °C) and -2.34 ± 0.26 (37 °C).

For AUCUAGCAAUAUUACGUUGA, the “self-splicing fitness (ln)” value by setting is: (30 °C) -2.53 ± 0.11; (37 °C) -1.7 ± 0.11.

On to GACGAGCAAUAUUACGGAGG, for which the “self-splicing fitness (ln)” value is, setting by setting: (30 °C) -3.68 ± 0.26; (37 °C) -2.97 ± 0.35.

As to AGAAAGCAAUAUUACGAGUU, the “self-splicing fitness (ln)” value reads like this: (30 °C) -1.58 ± 0.084; (37 °C) -0.668 ± 0.11.

As for AUGUAGCAAUAUUACGCGAC, the “self-splicing fitness (ln)” value (30 °C) is -1.38 ± 0.17 and the “self-splicing fitness (ln)” value (37 °C) was -1.76 ± 0.36.

On to CAAGAGCAAUAUUACGACAA, for which the “self-splicing fitness (ln)” value reads like this: (30 °C) -0.348 ± 0.28; (37 °C) -1.43 ± 0.39.

As for UGUCAGCAAUAUUACGUAAC, the “self-splicing fitness (ln)” value was -2.38 ± 0.24 (30 °C) and 0.145 ± 0.26 (37 °C).

As to CGGAAGCAAUAUUACGCUAG, the “self-splicing fitness (ln)” value reads like this: (30 °C) -1.05 ± 0.091; (37 °C) -1.6 ± 0.19.

Take AGACAGCAAUAUUACGUCGC: the “self-splicing fitness (ln)” value was -2.96 ± 0.2 (30 °C) and -1.98 ± 0.19 (37 °C).

Consider AAUUAGCAAUAUUACGGUAG, for which the “self-splicing fitness (ln)” value (30 °C) is -4.2 ± 0.39 and the “self-splicing fitness (ln)” value (37 °C) was -1.66 ± 0.24.

With AGGAAGCAAUAUUACGGCUU, the “self-splicing fitness (ln)” value was -3.74 ± 0.34 (30 °C) and -1.32 ± 0.17 (37 °C).

Turning to AUGAAGCAAUAUUACGAUUU, the “self-splicing fitness (ln)” value runs as follows: (30 °C) 0.114 ± 0.062; (37 °C) 0.345 ± 0.071.

With GUCGAGCAAUAUUACGAGUA, the “self-splicing fitness (ln)” value by setting is: (30 °C) -2.24 ± 0.45; (37 °C) -1.13 ± 0.25.

In the case of AAGAAGCAAUAUUACGCUUC, the “self-splicing fitness (ln)” value (30 °C) is -3 ± 0.26.

On to AUCCAGCAAUAUUACGAGCU, for which the “self-splicing fitness (ln)” value runs as follows: (30 °C) -2.2 ± 0.096; (37 °C) -2.03 ± 0.17.

With UCGCAGCAAUAUUACGAGCA, the “self-splicing fitness (ln)” value (30 °C) was -1.25 ± 0.23 and the “self-splicing fitness (ln)” value (37 °C) is -0.449 ± 0.27.

Consider CUGAAGCAAUAUUACGACCU, for which the “self-splicing fitness (ln)” value is, setting by setting: (30 °C) -3.63 ± 0.4; (37 °C) -3.1 ± 0.18.

As to AUUCAGCAAUAUUACGGUAA, the “self-splicing fitness (ln)” value runs as follows: (30 °C) -0.935 ± 0.086; (37 °C) -0.659 ± 0.078.

For GAAAAGCAAUAUUACGCAGG, the “self-splicing fitness (ln)” value is, setting by setting: (30 °C) -2.07 ± 0.076; (37 °C) -1.85 ± 0.087.

For the sequence AUUGAGCAAUAUUACGCCAC, the “self-splicing fitness (ln)” value (30 °C) is -1.44 ± 0.42.

As to AGUGAGCAAUAUUACGUUCU, the “self-splicing fitness (ln)” value by setting is: (30 °C) -1.78 ± 0.15; (37 °C) -1.57 ± 0.14.

For the sequence GCCGAGCAAUAUUACGGAAA, the “self-splicing fitness (ln)” value runs as follows: (30 °C) -0.987 ± 0.1; (37 °C) -0.953 ± 0.1.

As to CAUUAGCAAUAUUACGUUAU, the “self-splicing fitness (ln)” value (37 °C) was -1.91 ± 0.22.

In the case of CGGUAGCAAUAUUACGUAUC, the “self-splicing fitness (ln)” value reads like this: (30 °C) -2.67 ± 0.15; (37 °C) -2.83 ± 0.29.

For the sequence GAGUAGCAAUAUUACGCGAG, the “self-splicing fitness (ln)” value (30 °C) is -3.35 ± 0.16 and the “self-splicing fitness (ln)” value (37 °C) was -0.947 ± 0.1.

Consider AGGUAGCAAUAUUACGAUCU, for which the “self-splicing fitness (ln)” value runs as follows: (30 °C) -0.913 ± 0.016; (37 °C) -0.426 ± 0.034.

As to UUUGAGCAAUAUUACGGAGA, the “self-splicing fitness (ln)” value (37 °C) was 1.09 ± 0.29.

Consider CCGAAGCAAUAUUACGCUUC, for which the “self-splicing fitness (ln)” value runs as follows: (30 °C) -3.15 ± 0.27; (37 °C) -3.2 ± 0.34.
